Experiment: label from the status in PepcDB records

| Sequence | protein production |
| --- | --- |
| MTSYSLEDFNTPLECAPLARWERKRKEQLDRTSKTPNKTPQGDRFIPNRNVMNIEVSRLNLQQEYYGKENNQNSSSLLDSHMDNVEWNSGKDSPACHHYQSALASSLLQNSYHEEHPQSKILTFKQKAPKPQEGYVNSLKVLYSQNMPQISEQRKRMIRHIPQTPDRILDAPELVDDYYLNLLDWNHENILAVALGSSVYLWNASTGDIQELCNVSQDEMICSVSWVPDGHHLAVGTSMKDVQLWDTQRGRQVRKMHSHSSRVGCLAWNGPILSSGSRDTTIHHHDVRIAQHHVETLRGHEQEVCGLKWNVDGSQLASGGNDNLLMIWDHFHSNQPKYRLDHHHAAVKAIAWCPWQTHLLASGGGTADRTIKFWNTTTGACLQSIDTKSQVCALIWNRHDKEIVSSHGFSQNQLIVWKYPSMVKMAELTGHTSRVLHLSLSPDGQTVVSGAGDETLRFWRVFEASESKLKSSNKTLGHSQKSIMRTCNIR | not failed |
| MAAPLIPVLTAPTAAGKTALALRLAREYGLEIVAADAFTVYRGLDLGTAKPTPQERASVPHHLLDVVDVTQSYDVAQYAAQAEAAIVDILARGRLPLVVGGTGFYLSALSRGLPLTPPSDPKMRAALEAELQERGLDALLAEIEQANPAEAARMERNPRRVVRALEVYRAAGRFPGEFGYSPPAFQYQVFAFSPPAAEMEQRVQERTAAMLRAGWPQEAQWLAGQVPPEQEPRPTVWQALGYAEALAVAQGRLSLAGAEQAIALATRQYGKRQLTWMRRQLGAEVQSPDAAEAHLRAFLERSGAPSLEHHHHHH | failed |
| MTTTKDVPIDLKASGKTAADTSYSFSSDTKSVTVTGTKAALAKLKSLPVNVDVTNVDSTTTKTVDVSTSDEDGISSVSPTSVKVKITVKNDLEHHHHHH | not failed |
| MIEFTALDDLSLLRESVSLECKLAQGRDGKGALPDDFWPTYSAMANTDGGIVILGVRERKGQFEVAGIENPDKLRTELFNHLNNRQKVSVNLLRDEDVRAWPVEGKTLLVVEIPRARRQQRPVYLRGNPLGGHTYRRLHEGDRPLPDEDVKRMLAEQVEDSRDERILPGYGLDDLHLESLRAYRQLFANRDPSHPWNALADQAFLRQIGGWRQHRETGEAGLTLAGLLMFGQWSSITEAVPLCFLDYQERPADYATTVQWLDRIVPDGTWSGNVFDFYRRVVGKLTADIKVPFVLKGDIRQDDTPTHKALREALVNTLVHADYTGRISVLVVKEPAGFVLRNPGGLRVPAQQALQGGMSDCRNRTMQQMFLMIGLGERAGSGMSRIVHGWRDLGHELHLRESYEPHEHSVLEMFWAKGRGATLASESSEESSEESSEETGKKILHLLREEPSLTASALARRLQLTPRAIEKQLEHHHHHH | not failed |
| MFPRALAIGTPAQHKATEAPVTSTSASGLARFNTLEETAALAELHEACAATAWARHLLAARPFATAEDLYAASDAAMAELSAEDLAEAMAGHPPIGRPKPGDATSSREQAGMAGAAEELKAEMLELNLAYQDKFGHVFLICATGRTGEQMRDAALERIGNSPEQEREIVRTELGKINRIRLTRLVEQDARPLEHHHHHH | not failed |
| MAVSPDDPLILVGRVAGGFGVRGEVRITTYTEDPLSIAGFKALKRQDGSPALTIASARKTKDGVVCRCPGVETKEAADALRGLRLYVPRSALPEPDDDEFYLTDLVGLTVRHIQTDQLLGRVKSVQNFGAGDILEITPDLGGPTWYLPFTRAAVPEVRVSEGLILADPPALVGDHEGPEEKGLDENEELGDRDLEHHHHHH | failed |
| MPAHSLSLYQYYRPPLDWQAQLAFYRLRAVAGMEWFSNTDNDCLEKIAQDKQALEYGRTLQIDDIRAVVHIIHEAHLHRFKLTLTFTPDSPIAGLQKLITQVRRILDLDADMQQIEHNLQRLTDLKLIPKSGLRIPGAGSLEHHHHHH | failed |
| MNTKRNRLLYATFTILVIILGLSSRKFAFALPALLNDYLGDALWALMIFTGFGFLFPKIATKKLAFISLIFCYGIEVSQLYHAEWIDSIRATTLGGLVLGYGFLWSDLVAYTIGVGIGFLFELILWKK | failed |
| MSLSYVHTEIQNDALYITLDYPEKKNGLDAELGTSLLEAIRAGNNETSIHSIILQSKHRAYFSSGPRLEDLLICASDQSDVRLREVLHVLNHCVLEIFTSPKVTVALINGYAYGGGFNMMLACDRRIALRRAKFLENFHKMGISPDLGASYFLPRIIGYEQTMNLLLEGKLFTSEEALRLGLIQEICENKQELQERVKNYLKAVSEGYVPAIAATKKLLKGKAAEELKQQLEQETEELVALFKQTEIKKRLEALVEGHHHHHH | not failed |
| MSLYDLKPNEKGRIKDIKGDERLSKRLSALGFIEGTEVEVKMMAPLGDPILVNVRGFNIAIRKNDAKNIFLKEAKLEHHHHHH | not failed |
| MVGTLYDKMYENFVEEVDAVDNGISQWAEGEPRYALTTTLSARVARLNPTWNHPDQDTEAGFKRAMDLVQEEFLQRLDFYQHSWLPARALVEEALAQRFQVDPSGEIVELAKGACPWKEHLYHLESGLSPPVAIFFVIYTDQAGQWRIQCVPKEPHSFQSRLPLPEPWRGLRDEALDQVSGIPGCIFVHASGFIGGHRTREGALSMARATLAQRSYLPQIS | failed |
| MVSLVMSGLTFWAVNTIQQDAQVNDTRFGRDLGLLLAANVAPLVADHNLTEVAQFSQRFYSSTSSVRYMLYADETGKIFFGIPFWEPEVENSLSIERRIQLPEEYPGDGEKPMVRQHMSPDGIVTDVFIPLIVDKKYLGVLAIGINPNQTAVISTNFTRDVTIAVFITIWVMVILAGVVNALTITKPIKELLVGVKQIAAGNFKQRIDLPLGGELGELILNFNEMAERLERYEEQNIEELTAEKAKLETLVSTIADGAVLIDNNMQVILVNPTARHIFGWEGADDVVGSNVLHHLPPAVQMEITRPLYEMAAGECDSAEFRLTLNQPSNRTIRILLTTVLNLQRESIKGIAITVQDITREVELNEAKSQFISNVSHELRTPLFNIKSFIETLHDYGEDLSLEERQEFLQTVNHETDRLTRLVNDVLDLSKLESGRSYSFDGVDLAQAIEQTLRTYQLNARDKGIELIQDVAPGLPLVLGNYDLLLQVLANLVGNALKFTSSGGKIAIRTYVLNTKSNSPNQPAQVRIEVSDTGIGIAQEDQQAIFDRFFRVENRVHTLEGTGLGLSIVRNIVERHRSRVNLVSEVGVGTTFWFDLILFEDEAPKKMVESGEEKAAMPTS | failed |
| MSIKAGFDDRALARVEAAIRADVESGIYDGAVIKVARHGQIALDATIGFSNRRAGAAMREDAVFKVLSLTKAFTTTLVLEAIDLGLLSLTTRVVDVIPEFWGRDLFRSGRKERVNVGHLLTHRAGLSPTPQPLPYDQLHNFSETIQAICALDVVGEPGKAFNYSPTVNHALLGEMVRRVHGAASLAELMDQRLFSRLGMSSTSLGPTSQIRDRLVPLTSDFPEGGWLTNADIKAVADAIEAPNSQMPWVGAMTSAQDVFVFAEMLREQGTVRDERILSPAVVRKATTLQTGDAINDLYKLLADARHWDLPAGNMGLGFALGGDGLTVSQFGTLTSPGTFGNFGAGSTLFWVDPESQITFVCLTAKVMEESENILRFQRLSDLVASAAL | failed |
| MSQIEAVFFDCDGTLVDSEVICSRAYVTMFRQFDITLELTEVFRRFKGVKLYEIIDTISKEHGVALAKAELEPVYRAEVARLFDTELEAIAGANTLLESIKTPMCVVSNGPVSKMQHSLGKLGMLHHFPDLLFSGYDIQRWKPDPALMLHAANAMKVNVEKCILVDDSSAGAQSGIAAGMEVFYFCADPHNKPIDHPNVTTFTDLAQLPGLWKAR | failed |
| MFFSEARARSRTWEASPSEHRKWVEVFKACDEDHKGYLSREDFKTAVVMLFGYKPSKIEVDSVMSSINPNTSGILLEGFLNIVRKKKEAQRYRNEVRHIFTAFDTYYRGFLTLEDFKKAFRQVAPKLPERTVLEVFREVDRDSDGHVSFRDFEYALNYGQKEA | failed |
| MQENHLIDIARWSERPGPRGIPSICSAHPLVIEAAMLRAHREKAPVLIEATCNQVNQDGGYTGMTPEDFTRFVGAIADRIEFPREKILLGGDHLGPNPWKHLPADEAMAKAEAMITAYAKAGFTKLHLDTSMGCAGEPTALPDATTAARAARLAAVAEDAVGGRGGVLPVYIIGTEVPIPGGALEELDTLEVTAPEAAIETVRVHRAAFEEAGAAGAFSRVVGAVVQPGVEFGNENVIAYDRARAEKLSATLGQLHGMVFEAHSTDYQTPDALRELVADGFAILKVGPGLTFALREALYGLDQIAAFLFPAARERTLAEVTEAVMREEPANWAKYYHGSAEEQRLQRHFSYSDRIRYYWPHPKAAAAVDELMSLLDGVAIPETLISQFLAGSYARVRNGEVAPQAKPLALAAVDAVLQDYFAACRV | not failed |
| MSIKPKIMISSLDAERLEILLETLSQNAFPGRDDLEAELARAEVVDPEEIPPTVVTMNSTVRFRVESSAEEFCLTLVYPKDVDTSGEKISILAPVGSALLGLAQGDEIEWPKPGGGVLRVRIVEVTYQPERSGEYYR | not failed |
| MSSSSVIMDFLKYSPQPLQLITRPRHSIHHSTLRSSRRLTTSHNHSTPRSSSSHHHFSPSLDPVAEHHHHQSLDRTLDLVVESPHHHSLDPSLCHQVEFHHHPPLDIILDCQLQSLLDSAINKTLEHKEEMKTLARHSTHYLITWVEYHS | failed |
| MNWVAPIKDQETLKNFGETLKQVDYKYYIMFELGVGTGLQLQDILAFKNKDVTGKKEIEVTIGTRNMKNVFTVPEELQQIINEYTKGKDPEAYLILGHSSSNKPVSREQAYRVLRSAGHKIGLNSIGAQTMRKTYAWNYYKETGDIYHLQKLFNHASPSITYRFIGEKPNIEVFLKKMTPQENERSRYLLYLNDNGKKKLNKIIDILTGIRDNFDSPANNDAFYGKVDCLLQELEALMENYENTK | failed |
| MVAGFTVHSGPHHVPHRDMTHHSRPPGHAPRVTILMPVYNGEKYLAAAMESILDQTFRDFILLIIDDGSSDSSLAIARSFGDPRVQVERNPKNLGLVKTLNRGLDLVQTEFVARMDCDDIALPDRLEKQIAFLDENPDIGMCGTAYELFHESLRQTIRPPCRHEEIVYGLLDDNVFLHSSVIVRMEVLNRHGLRYREDYRLAEDYELWARLARYTHIGNLPQVLVRYRSHPENVSNTNKGEQIATRDRVRLEHLESFGLAPAADQKTLHIDLFSLAFQGSPDQLADARRWLEALARAVSTRCGLPLGRLHRDFALLWYSACGRSAHHGLTVLFSYLKSAMAWKGPKSYILKLLFRCLMRDPIPAVTKLEHHHHHH | not failed |
| LTECLSQGEDIRLSKILIFAGTTEGRKLSEHLCKRGIEHTVCVATEYGEIVLHENPFAHVHMGRMDSEGMRSFFAEQKCKLIVDATHPYAAIVTENIKQAVYAFNEAHAVTDNQADSSISENIEYVRLKRDTDISADYDNIRYFEDNEACAKALNNTDGNILLTTGSKELSVYCKTSDVRERLYVRVLPGLESISLCMHNDITGKHILALQGPFSTQLNEALIDQYDIRCLVTKKSGAAGGFIEKIAAAKNKNIPVYIVGQSVQDDGMSFEAVCEYIDSKYNKLHIMLAGIGMGNDACMTKAVSDAIESADIILGASRMIEKYSAKIDKKPYYLAEQIIPYLYEICADTAKISNVLILFSGDTGFYSGSRKLYLAIKNEISEGKLNADVSILPGISSVSYMAAAVGETYNDAYICSIHGVKLSNITSRISHHAKTFMLMSGVRDVNMLGHLLSSDERYGLQKCSVTVGYQLSYPDENISQLSPQECTKLKREGLYICMIKNPNPVAKNVTPQLSDAAFIREKVPMTKEEIRHVSICKLHLKSDSVLYDVGSGTGSIAVEAASLSDDMEVYAIEQKENAVQLITKNKEKHGLENIHVINAKAPDGMENLPVPTHAFIGGSSGNLKEIIEALKAKNPHIRIVINAISMETICEIKEIMSAYNVKNEDIVQLQVSRSKQIGHYHLMQAENPVWICSFEF | failed |

Reference: a protein production outcome set (Wang et al. 2014)
